Here are results for 3 molecules from patent US20070189963A1 (EIDGENOSSISCHE TECHNISCHE HOCHSCHULE ZURICH, published 2007).

The target in experiment [1] is hen egg lysozyme (hen) (UniProt P00698). The experiment can be described thus: affinity chromatography of the Cy5 conjugate on an antigen column.
Experiment [2] shares this target. Kind of experiment: 125I-labeled scFv loaded on an antigen column, counting of flow-through and eluate.
Experiment [3] concerns the target T1, recombinant ED-B domain of fibronectin (UniProt P02751 1266-1356, biotinylated (biotin disulfide N-hydroxysuccinimide ester) in ELISA and ECL competition; Cy5 at the N-terminal extremity in the band-shift assay).
T1 construct: domain: ED-B; Recombinant fragment as in Carnemolla et al. 1996; also called biotinylated ED-B; ED-B-biotin
The experiment can be described thus: SPR (BIAcore). How it is done:
(§1) After loading, the column was washed with 50 ml of equilibration buffer (PBS, 1 mM EDTA, 0.5 M NaCl). Antibody fragments were then eluted with triethylamine 100 mM, immediately neutralised with 1M Hepes, pH 7, and dialysed against PBS, Affinity measurements by BlAcore were performed with purified antibodies as described (Neri et al. (1997). Nature Biotechnol., 15 1271-1275) [FIG. 4]. Band-shift analysis was performed as described (Neri et al. (1996). Nature Biotechnology, 14, 385-390), using recombinant ED-B fluorescently labeled at the N-terminal extremity (Carnemolla et al. (1996). lnt. J. Cancer, 68, 397-405, Neri et al. (1997). Nature Biotechnol., 15 1271-1275) with the infrared fluorophore Cy5 (Amersham) [FIG. 4]. […] We therefore peformed measurements of the kinetic dissociation constant koff by competition experiments (Neri et al. (1996), Trends in Biotechnol., 14, 465-470) [FIG. 4]. […] Streptavidin-coated dynabeads, diluted in Origen Assay Buffer (Deaver, D. R. (1995). Nature, 377, 758-760) were then added (20 μl, 1 mg/ml), and the resulting mixtures analysed with a ORIGEN Analyzer (IGEN Inc. Gaithersburg, Md. USA).
(In general: In SPR one partner is held on a chip, and binding of the other changes the refractive index at the surface.)

In experiment [4] the target is T1, recombinant ED-B domain of fibronectin. The experiment can be described thus: SPR (BIAcore), purified scFv. How it is done: as §1, with “Meth., 206, 171-182) and affinity purified onto a CNBr-activated sepharose column (Pharmacia, Uppsala, Sweden), which had been coupled with 10 mg of ED-B containing 7B89 recombinant protein (Carnemolla et al. (1996). lnt. J. Cancer, 68, 397-405). After” for “After”, “USA). […]” for “USA).”

The target is the same in experiment [5]. Kind of experiment: Kd = koff/kon, koff from ECL competition, kon from BIAcore. The method, then:
as §1, with “J. Cancer, 68, 397-405). After” for “After”, “USA). […]” for “USA).”

Experiment [6] shares this target. Kind of experiment: competition of scFv-(ED-B-biotin) complex with unbiotinylated ED-B, electrochemiluminescent detection (Origen). How it is done: as §1, with “J. Cancer, 68, 397-405). After” for “After”, “USA). […]” for “USA).”

T1 sequence (P02751 1266-1356 limits assumed): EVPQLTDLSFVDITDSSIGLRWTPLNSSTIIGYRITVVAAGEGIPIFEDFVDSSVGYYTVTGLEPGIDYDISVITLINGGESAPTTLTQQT
Sequence of hen egg lysozyme (hen) (P00698 19-147): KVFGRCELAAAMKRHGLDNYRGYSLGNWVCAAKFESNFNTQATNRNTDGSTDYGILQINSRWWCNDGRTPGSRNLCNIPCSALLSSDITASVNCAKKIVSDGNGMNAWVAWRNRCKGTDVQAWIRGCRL

scFv(HyHEL-10): the immunoreactivity in the experiment with hen egg lysozyme (hen) [1] was greater than 78%.

In the experiment with hen egg lysozyme (hen) [2], scFv(D1.3) registered an immunoreactivity of 80%.

B1: scFv L19 (high-affinity anti-ED-B human scFv antibody fragment) (scFv)
scFv: EVQLLESGGGLVQPGGSLRLSCAASGFTFSSFSMSWVRQAPGKGLEWVSSISGSSGTTYYADSVKGRFTISRDNSKNTLYLQMNSLRAEDTAVYYCAKPFPYFDYWGQGTLVTVSSGDGSSGGSGGASTGEIVLTQSPGTLSLSPGERATLSCRASQSVSSSYLAWYQQKPGQAPRLLIYYASSRATGIPDRFSGSGSGTDFTLTISRLEPEDFAVYYCQQTGRIPPTFGQGTKVEIKDDDSDDDYKDDDDKHHHHHH
notes: T0005 (VH, linker, VL) is not labelled L19 itself; also called antibody L19
In general, koff refers to the first-order rate constant of dissociation. One may read the kon as the rate constant with which the complex forms. Usually Kd stands for the constant that tells how readily two partners part at equilibrium. Take B1: the koff in experiment [3] was 9.6e-05 s⁻¹; in experiment [6] it was 6e-06 s⁻¹. In addition, the kon in experiment [4] turned out to be 110000 M⁻¹ s⁻¹. The Kd in experiment [5] turned out to be 54 pM.
